{"source": "the DeepSol protein solubility set"}
{"experiment": "soluble on expression in E. coli; label from the status in PepcDB or PDB records"}
{"sequence": "MSLTILNHTLGFPRVGLRRELKKAQESYWAGNSTREELLAVGRELRARHWDQQKQAGIDLLPVGDFAWYDHVLTTSLLLGNVPARHQNKDGSVDIDTLFRIGRGRAPTGEPAAAAEMTKWFNTNYHYMVPEFVKGQQFKLTWTQLLDEVDEALALGHKVKPVLLGPVTWLWLGKVKGEQFDRLSLLNDILPVYQQVLAELAKRGIEWVQIDEPALVLELPQAWLDAYKPAYDALQGQVKLLLTTYFEGVTPNLDTITALPVQGLHVDLVHGKDDVAELHKRLPSDWLLSAGLINGRNVWRADLTEKYAQIKDIVGKRDLWVASSCSLLHSPIDLSVETRLDAEVKSWFAFALQKCHELALLRDAVNSGDTAALAEWSAPIQARRHSTRVHNPAVEKRLAAITAQDSQRANVYEVRAEAQRARFKLPAWPTTTIGSFPQTTEIRTLRLDFKKGNLDANNYRTGIAEHIKQAIVEQERLGLDVLVHGEAERNDMVEYFGEHLDGFVFTQNGWVQSYGSRCVKPPIVIGDISRPAPITVEWAKYAQSLTDKPVKGMLTGPVTILCWSFPREDVSRETIAKQIALALRDEVADLEAAGIGIIQIDEPALREGLPLRRSDWDAYLQWGVEAFRINAAVAKDDTQIHTHMCYCEFNDIMDSIAALDADVITIETSRSDMELLESFEEFDYPNEIGPGVYDIHSPNVPSVEWIEALLKKAAKRIPAERLWVNPDCGLKTRGWPETRAALANMVQAAQNLRRGEGHHHHHH", "soluble on expression in E. coli": "soluble"}
{"sequence": "MSLTILQELPKLSPLPARKLGSYTCKTVHMTTTELLPFHAVGTSPDAAAQADSNIETQFANVLHSLQVNKQRDPFDIIQDFKQICADRALSTRDKLSLDESNTALAEEFDNWDLEFKLWELVDRLFRFRALFSNKAKTELLREYDFSSMGIKQENFLRKNPAIRELSIIILWLQSHTPSLVGDETESYQTKWKNTAMAVANSDFDVLASRATDADLIDKLDIDAPLRSNRSIHPADESNDSKVFAQIYKLLLQDRVQDAIDIANNTGNYALALILVGATQEYFDPVLDKQDLDFDSIVAEQTKPSGIKHKLLWKKTVYKLSQQANLNKYEKLIYNYLCGGDISGNLLVASDDWEQTLLLYLSQLYSYNIDNFIVSQLSSEQEILPVNIPKPQLNTIAEILNTILHSGNLLTQQSENPLRVIMGSVMLDNVPSLLHNLTSSLTGEPEALKKPYISRVLTHLAIFQLLVVGTDNINNEDITTIITSYTSKLAEYKLPELIPIYLSFVPNEKDSREAYALFLSSLTDSSDRSKQIEISRRIANSISEVDEAMELAANTQEDKMMNVLRRTVERVMKDTESHYKPQAVIEVQDDINSVDDIDSKLYHSVEWFYENKMYEDAIVATIAIIRRFLLCGKLAPLKAFSKGKNFKLLLVEYDTQLQTKSLIFQNEPEIVTEEDKEELLAYASLIEGLILIDEWKKFVSTQINSEGHHHHHH", "soluble on expression in E. coli": "not soluble"}
{"sequence": "MSLTIRDIAAKAGVSVSTASRALNNNPRISQATRERIQALAEAEGYLPNYNAKNLTAGESNAVGVVFATADRSQPENPFFIDILRGINAQLVQRDYVLSVAISKTADELLKNVKAMVAQGKIKRFVLLYAHQDDPIAAFLRQHHLRFVTIGQPDDNANDYFVDNDNLEAGIGGATFLLNQLQVKHPVFVESTHDWAYEQQRRQGYERVAATFNVEPLTCRLGELNRVRAFIKRHPEIDGIMATDDFNGIEFYRLMREQYGINHFPMVSFNQSLPNGLTDADLHSVNLFPEKMGSATVALLFSDKEPLETPTPGQIKIPFEIKEGHHHHHH", "soluble on expression in E. coli": "soluble"}
{"sequence": "MSLTKEAIISYLSSDLFKGVGKKTAQNIVNTLGDNAINDILDDHSVLEKVSGLSKKKQKQIAEQISANQESEKIMIRLHDLGFGPKLSMAIYQFYLGDTLTILDRNPYQLIYDIKGIGFNKADQLARNIGIAYNDNERLKAALLYTLEEECIKQGHTYLPINVVIDLTVDVLNYQDEEVIEPEKLDEMLQYLNEEKRLIIDNEQVAIPSLYYSEIKSVQNLFRIKTHTNKLTEIEQSDLQMHIGEIEDANQVNYAASQKEALQTAINSKVMLLTGGPGTGKTTVIKGIVELYAEIHGLSLDYDDYVNDDYPVVLAAPTGRASKRLQESTGLEAMTIHRLIGWNQDTKPEDILENEINARLIIIDEMSMVDTWLFHQFLSAVPLDAQLIFVGDEDQLPSVGPGQVFKDLIESKAIPRVNLTEVYRQQDGSSIIELAHRMKLGQKIDITQRFHDRSFINCQANQIPTVVEKVVTSAVNKGYTMADIQVLAPMYKGNAGIKRLNQVLQDILNPKKKDTREIEFGDVVFRKGDKVLQLVNRPNDNIFNGDIGVIVGIFWAKENALNKDVLVVDFEGNEITFTKQDMMELTHAYCTSIHKSQGSEFPIVIMPIVKQYFRMLQRPILYTGLTRAKTSLVLLGDPEAFDIGLKTNGQARLTQLCTLLKNYFNSEGHHHHHH", "soluble on expression in E. coli": "soluble"}
{"sequence": "MSLTKRWFNVGKIVNTHGIKGEVRVISKTDFAEERYKPGNTLYLFMDGRNEPVEVTVNTHRLHKQFHLLQFKEGQNLNEVEELKNAIIKVPEEELGELNEGEFYFHEIIGCEVFTEEGELIGKVKEILTPGANDVWVIGRKGKKDALIPYIESVVKHIDVREKKIEIELMEGLIDEEGGSHHHHHH", "soluble on expression in E. coli": "soluble"}
{"sequence": "MSLTKVLVIDPKIAGMSGDMFVSSLLALTNSYDLMDELILELEKLNNCNSFKVSVMDEKVNGISAKQLKIEIDEERIKNPDELKEIIINTSKNLMSEKGVKICENIINDLIEAEKKLHGDHFHLHEISSLDTVFDIVLPVLILEKNGFLDGKIYSTPPSLGNGRISMDHGIIPSPAPSTLEILCKHEIKCSKVDSEFELLTPTGAAILSNVTDEFTDSYPEIVLLKTAYGAGTKRMEHVPNVLRLVEGKTDEKIIEKTVILETNIDDISSEILAYAVERLLNEGAPDVFITPVFGKKNRPSSMISVICPYHVHEKFAKILIEETGTLGVRINHYDKIRAKRRMEKLTLDINGVNFGFDVKISDLNGEIVNIKPEFEDLKKIAKNLNIPLRDVLRHANNKIKEIYGFEGHHHHHH", "soluble on expression in E. coli": "soluble"}
{"sequence": "MSLTKVSSLGYPRLGENREWKKLIEAYWAGKVSKNDLFAGAKELRLDFLKKQLNAGLDLIPVGDFSLYDHILDLSVQFNIIPKRFAKEPIDIDLYFAIARGNKENVASSMKKWFNTNYHYIVPEWSKQRPKLNNNRLLDLYLEAREVVGDKAKPVITGPITYVALSTGVEDFTAAVKSLLPLYKQVFTELVKAGASYIQVDEPIFVTDEGKDYLQAAKAVYAYFAKEVPDAKFIFQTYFEGLIDSQVLSQLPVDAFGLDFVYGLEENLEAIKTGAFKGKEIFAGVIDGRNIWSSDFVKTSALLETIEEQSAALTIQPSCSLLHVPVTTKNETDLDPVLRNGLAFADEKLTEVKRLAEHLDGREDPAYDLHIAHFDALQAADFRNVKLEDLSRVATKRPSDFAKRRDIQQEKLHLPLLPTTTIGSFPQSREIRRTRLAWKRGDISDAEYKQFIQAEIERWIRIQEDLDLDVLVHGEFERVDMVEFFGQKLAGFTTTKFGWVQSYGSRAVKPPIIYGDVQHLEPITVEETVYAQSLTDRPVKGMLTGPITITNWSFERTDIPRDQLFNQIGLAIKDEIKLLENAGIAIIQVDEAALREGLPLRKSKQKAYLDDAVHAFHIATSSVKDETQIHTHMCYSKFDEIIDAIRALDADVISIETSRSHGDIIESFETAVYPLGIGLGVYDIHSPRVPTKEEVVANIERPLRQLSPTQFWVNPDCGLKTRQEPETIAALKVLVAATKEVRQKLGNEGHHHHHH", "soluble on expression in E. coli": "soluble"}
{"sequence": "MSLTKYIFVTGGVVSSIGKGIVAASLGRLLKNRGLKVTIQKFDPYINVDPGTMSPYQHGEVFVTDDGAETDLDLGHYERFIDINLNKYSNVTTGKIYSEVLRKERKGEYLGATVQVIPHITNEIKEKIMRAAKMTDADVIITEVGGTVGDIESLPFLEALRQMKADMGSDNVMYIHTTLIPYLKAAGEMKTKPTQHSVKELRSLGIQPNILVVRTELPVSQNTKNKLAQFCDVNPEAVIESRDVETLYSIPLALQAQNMDQIVCDHLKLDAPAADMTEWRALEEKVLNLKKKTKIALVGKYVELPDAYISVVEALKHAGFDFDSDIEIDWVDSQELTAENVAERIGSADGILVPGGFGDRGIEGKIEAIRFARENDVPFLGICLGMQMACVEFGRNVVGLEDAGSAETNPDVTNNIIDLMADQENIENLGGTLRLGLYPCKLKKGTKTAAAYGNEDVVQERHRHRYEFNNKYRQLFEENGLVFSGVSPDNRLVEIVEIPEKQFFVACQFHPELISRPNRPQRLIKGFVGAALANKEKGHHHHHH", "soluble on expression in E. coli": "soluble"}
